The target of test [1] is Trop-2 (EGP-1, epithelial glycoprotein-1) (human) (UniProt P09758).
Test [2] shares this target. Briefly: ELISA on Trop-2-expressing cell lines PC-3 and Calu-3.
For test [3] the target is unchanged. Briefly: cell-based or functional assay.
In test [4] the target is T1, Trop-2 (EGP-1, epithelial glycoprotein-1) (human, UniProt P09758 27-323).
T1 construct: whole, on cells
T1 sequence (looked up): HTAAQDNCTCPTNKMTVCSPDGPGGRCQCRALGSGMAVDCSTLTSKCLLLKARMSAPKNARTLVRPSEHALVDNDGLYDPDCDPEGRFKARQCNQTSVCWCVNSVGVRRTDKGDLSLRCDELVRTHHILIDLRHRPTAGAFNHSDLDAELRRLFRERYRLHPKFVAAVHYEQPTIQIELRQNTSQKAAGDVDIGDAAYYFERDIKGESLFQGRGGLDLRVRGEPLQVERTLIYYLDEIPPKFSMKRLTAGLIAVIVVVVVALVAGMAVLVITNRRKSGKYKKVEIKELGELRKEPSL
Briefly: ELISA on Trop-2-expressing cell lines PC-3 and Calu-3; apparent dissociation constant.

As to 2L-Rap(Q)-hRS7, the Kd in test [1] is 0.28 nM. In addition, the fold of apparent KD against hRS7 in test [2] is 2 fold. For the same molecule, in test [3], the EC50, MTS cell proliferation assay, Calu-3 cells came to 8.5 nM; the EC50, MTS cell proliferation assay, MDA-MB-468 cells came to 3.8 nM; the EC50, MTS cell proliferation assay, ME-180 cells was 1.5 nM; the EC50, MTS cell proliferation assay, T-47D cells turned out to be 2 nM.

B1: hRS7 IgG (humanized RS7, anti-Trop-2 / anti-EGP-1) (antibody, V domains shown)
VH: QVQLQQSGSELKKPGASVKVSCKASGYTFTNYGMNWVKQAPGQGLKWMGWINTYTGEPTYTDDFKGRFAFSLDTSVSTAYLQISSLKADDTAVYFCARGGFGSSYWYFDVWGQGSLVTVSS
VL: DIQLTQSPSSLSASVGDRVSITCKASQDVSIAVAWYQQKPGKAPKLLIYSASYRYTGVPDRFSGSGSGTDFTLTISSLQPEDFAVYYCQQHYITPLTFGAGTKVEIKR
Regarding B1, the Kd in test [4] was 0.14 nM.

These data come from US20110070156A1 (published 2011).
